Series [1] concerns the target 3xFLAG-BIRC6 (full-length, wild type) (human) (UniProt Q9NR09). In words: FRET or BRET.
Series [2] has as its target FLAG-BIRC6 (full-length baculoviral IAP repeat-containing protein 6) (human) (UniProt Q9NR09). In words: cryo-EM structure. The conditions noted are these: remark: other sources report otherwise.
Series [3] deals with 3xFLAG-BIRC6 ΔHelix (aa1616-1666 removed) (human, UniProt Q9NR09 1-4857, ΔHelix, aa1616-1666 removed). In words: FRET or BRET. Background: Bioluminescence resonance energy transfer reports proximity on the nanometre scale.
Series [4] addresses 3xFLAG-BIRC6 (full-length, wild type) (human, UniProt Q9NR09 1-4857). Description: FRET or BRET.
For series [5], the target named is 3xFLAG-BIRC6 BIRmut (C328S/C331S) (human, UniProt Q9NR09 1-4857, C328S | C331S). Description: FRET or BRET.
Series [6] addresses FLAG-BIRC6 (full-length baculoviral IAP repeat-containing protein 6) (human, UniProt Q9NR09 1-4857). In words: cryo-EM structure.
The series “cryo-EM structure” concerns the molecule itself. In words: cryo-EM structure.

“And” between values parts separate entries of the source, which are not always exact repeats. Equal values may be shown once. Some results are limits rather than exact numbers.

With “BODIPY-labeled caspase-7 (from UniProt P55210 1-303) (enzyme)”, in series [1], the Kd (commonly the free concentration of one partner at which half of the binding sites on the other are occupied at equilibrium, for simple one-to-one binding) worked out at 4 nM. In other words, the single-digit nanomolar range.

With “FLAG-BIRC6 (full-length baculoviral IAP repeat-containing protein 6), Q9NR09 1-4857”, the stoichiometry N (usually a count of units in the complex or per binding partner) in series [2] is 2.

B1: BODIPY-labeled Smac-Cys (natural protein)
chain: AVPIAQKSEPHSLSSEALMRRAVSLVTDSTSTFLSQTTYALIEAITEYTKAVYTLTSLYRQYTSLLGKMNSEEEDEVWQVIIGARAEMTSKHQEYLKLETTWMTAVGLSEMAAEAAYQTGADQASITARNHIQLVKLQVEEVHQLSRKAETKLAEAQIEELRQKTQEEGEERAESEQEAYLREDC
modifications: BODIPY FL Maleimide on the introduced cysteine (degree of labeling 0.48)
As to B1, the Kd in series [3] is 30 ± 5 nM; in series [4], < 2 nM and 2 nM; in series [5] it was 26 ± 2 nM. In addition, in series [4], the binding result is “binds”.

B2: Smac-His9 (mature Smac without the N-terminal mitochondrial targeting sequence) (natural protein)
chain: AVPIAQKSEPHSLSSEALMRRAVSLVTDSTSTFLSQTTYALIEAITEYTKAVYTLTSLYRQYTSLLGKMNSEEEDEVWQVIIGARAEMTSKHQEYLKLETTWMTAVGLSEMAAEAAYQTGADQASITARNHIQLVKLQVEEVHQLSRKAETKLAEAQIEELRQKTQEEGEERAESEQEAYLRED
Consider B2, for which the binding result in series [6] is “binds”. For the same molecule, the “stoichiometry N” value in the series “cryo-EM structure” was 2.

The values are drawn from publication doi:10.1101/2022.08.19.504532 (bioRxiv, 2022).
